Values quoted from earlier work as cited in patent US20060105948A1, “GLP-2 derivatives” (Novo Nordisk A/S, priority 2003, published 2006).

Assays:
[1] = humans
[2] = in vivo
[3] = tested on: (DS)-induced colitis in mice; conditions: 350 ng or 750 ng s.c. twice daily for 9-10 days
[4] = s.c. injection 400 mg = 106.000 pmol

For GLP-2(1-33), the “T½ value of elimination” value ([1]; GLP-2 infusion 0.8 pmol/kg * min) is given as 7 min, the “plasma level of intact GLP-2(1-33) reached on infusion” value ([1]; GLP-2 infusion 0.8 pmol/kg * min, increasing from 9 pM) is given as 0.131 nM and the “injected GLP-2(1-33) still intact” value ([1]; one hour after the s.c. injection) is given as 69%. For the same substance, the maximum plasma concentration [1, 4] was 1500 pM, the “time of maximum plasma concentration” value [1, 4] was 45 min and the biological half-life [2] was “about 7 min”.

In the case of “A2G-GLP-2(1-33) (HGDGSFSDEMNTILDNLAARDFINWLIQTKITD; Glucagon-like peptide 2; UniProt P01275 146-178, looked up, variant A2G) [GLP-2 peptide analog with Ala2 replaced by Gly]”, the histology of colon ([3]; DS mice) is given as “greater proportion of intact mucosal epithelium, increased colon length, crypt depth and mucosal area” and the body weight loss ([3]; mice on 5% DS in drinking water) is given as “lost significantly less body weight”.
